Legend:
[1] = CMC formulation buffer screen (shake flask solubility); assay type: physicochemical; conditions: 0.5 mg/mL
Procedure: Exemplary conjugate agents (e.g., sortilin binding agents), referred to in the present Example as “peptide drug conjugates” or “PDCs” were assessed in a formulation screen to determine an appropriate vehicle for in vivo studies and to assess precipitation risk. PDC solutions were made up to 0.5 mg/mL in the following buffers: 25 mM Histidine 10% sucrose pH 7, 50 mM acetate/acetic acid, 10% sucrose pH 5, 1×PBS pH 7.4, Saline, 50 mM HEPES 10% sucrose pH 7. Solubility was assessed using a shake flask method and the test compound concentration of the filtrate was confirmed using HPLC-UV.
The following buffers were screened: 25 mM Histidine 10% sucrose pH 7, 50 mM acetate/acetic acid, 10% sucrose pH 5, 1×PBS pH 7.4, Saline, 50 mM HEPES 10% sucrose pH 7. The PDCs were soluble in all buffers tested (Table 1), and we proceed to use 25 mM Histidine, 10% sucrose pH 7 as our buffer of choice for our in vivo studies.

[2] = Murine plasma stability assay; assay type: in vitro ADME; conditions: mouse, 37° C., read-out: Murine plasma stability assay, T1/2
Procedure: Frozen plasma was thawed at 37° C. and centrifuged at 4000 rpm to remove any clots and transferred to 96-well reaction plates by WuXi AppTec. Test compounds were added to the reaction plate at a final concentration of 2 μM and either stopped immediately or incubated at 37° C. for 5 minutes, 10 minutes, 30 minutes, 60 minutes, or 120 minutes. At the end of incubation, stop solution consisting of 200 ng/mL tolbutamide and 200 ng/mL labetalol in ACN was added to precipitate protein and mixed thoroughly. Samples were then transferred to a bioanalysis plate and shaken for 10 minutes prior to HPLC-MS/MS analysis of percent remaining compound.

[3] = Maximum tolerated dose (MTD) study; assay type: in vivo, BALB/c Nude mice; conditions: for body weight loss: after 48 hrs
Procedure: BALB/c Nude mice, female, 6-8 weeks, weighing approximately 18-22 g were purchased from the Shanghai SLAC Laboratory Animal Co., LTD. MTD studies were conducted at WuXi AppTec and the care and use of animals was conducted in accordance with the regulations of the Association for Assessment and Accreditation of Laboratory Animal Care (AAALAC). Two MTD studies were performed (a) a low dose study with doses ranging from 0.1, 0.5, 1 and 3 mg/kg and (b) a high dose study with doses ranging from 3, 5, 10 mg/kg. Dosing volume was determined based on body weight (10 ul/g) and PDCs were dissolved in 25 mM Histidine 10% sucrose pH 7 and administered i.v. at a single dose at day 0. The treatment and observation were conducted up to 7 days and MTD was defined by ≥20% body weight loss. Body weights were measured daily, death and observed clinical signs were recorded.
Doses of 3, 5, and 10 mg/kg were administered. MTD was defined by ≥20% body weight loss and body weight measured daily.

For `CC[C@H](C)[C@@H]([C@@H](CC(=O)N1CCC[C@H]1[C@H](OC)[C@@H](C)C(=O)N[C@H](C)[C@@H](O)c1ccccc1)OC)N(C)C(=O)[C@@H](NC(=O)[C@H](C(C)C)N(C)C(=O)OCc1ccc(NC(=O)[C@H](CCCNC(N)=O)NC(=O)[C@@H](NC(=O)CCCC(=O)NCCC(=O)N(C)CC(=O)N(C)CC(=O)N(C)CC(=O)N(C)CC(=O)N[C@@H](C)C(=O)N2CCC[C@H]2C(=O)N[C@@H](CCCNC(=N)N)C(=O)N[C@@H](Cc2c[nH]c3ccccc23)C(=O)N[C@@H](CC(=O)O)C(=O)N[C@@H](C)C(=O)N2CCC[C@H]2C(=O)N[C@@H](CC(C)C)C(=O)N[C@@H](CCCNC(=N)N)C(=O)N[C@@H](CC(=O)O)C(=O)N2CCC[C@H]2C(=O)N[C@@H](C)C(=O)N[C@@H](CC(C)C)C(=O)N[C@@H](CCCNC(=N)N)C(=O)N[C@@H](CCC(N)=O)C(=O)N[C@@H](CC(C)C)C(=O)N[C@@H](CC(C)C)C(=O)O)C(C)C)cc1)C(C)C` [PRGN_WT_PDC], the formulation screen result ([1]; 25 mM Histidine 10% sucrose pH 7) was “clear solution”, the formulation screen result ([1]; 50 mM HEPES 10% sucrose pH 7) was “clear solution” and the formulation screen result ([1]; 50 mM acetate/acetic acid, 10% sucrose pH 5) was “clear solution”. For the same molecule, the formulation screen result ([1]; 1x PBS pH 7.4) was “clear solution”, the formulation screen result ([1]; Saline) was “clear solution” and the half-life at 2 μM [2] was 17.1 min. The body weight loss ([3]; 5 mg/kg single i.v. dose, recovered at Day 7) was roughly 15%, the “toxicity” value ([3]; 10 mg/kg single i.v. dose) was “significant toxicity” and the body weight loss ([3]; 10 mg/kg single i.v. dose) was “greater than 20%”.
